Test results reported in patent publication US20150258192A1, “COMPOSITIONS AND METHODS FOR PREVENTING OR TREATING CHRONIC LUNG ALLOGRAFT DYSFUNCTION (CLAD) AND IDIOPATHIC PULMONARY FIBROSIS (IPF)” (priority 2014, published 2015).
No end group written: not given here.

Legend:
Test in all cases: Kinase Profiling Assay
Type in all cases: biochemical
Settings in all cases: peptide 100 μM
SGK(h) = molecular target: T1, SGK(h) (Homo sapiens, UniProt O00141)
T1 construct: purchased Millipore
T1 sequence (O00141 1-431): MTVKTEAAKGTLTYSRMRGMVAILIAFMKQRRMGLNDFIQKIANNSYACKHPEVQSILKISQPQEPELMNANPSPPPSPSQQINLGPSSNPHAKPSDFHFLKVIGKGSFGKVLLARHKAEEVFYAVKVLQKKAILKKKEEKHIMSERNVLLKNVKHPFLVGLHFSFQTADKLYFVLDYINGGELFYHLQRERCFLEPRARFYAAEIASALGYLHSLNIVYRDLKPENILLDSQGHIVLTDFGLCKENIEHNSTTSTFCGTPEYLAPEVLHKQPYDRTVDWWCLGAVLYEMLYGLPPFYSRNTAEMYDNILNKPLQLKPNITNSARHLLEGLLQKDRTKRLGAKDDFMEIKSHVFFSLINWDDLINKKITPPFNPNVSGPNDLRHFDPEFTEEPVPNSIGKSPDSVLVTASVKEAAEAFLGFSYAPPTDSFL
How it was run: (§1)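 In this 266-kinase specificity panel, every measurement was duplicated. Transfer of labeled phosphate from ATP to a cationic substrate was quantified after the substrate adhered to an anionic filter membrane and was scintillation-counted, then related to a full-activity control.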

MKK7β(h) = molecular target: T2, MKK7β(h) (Homo sapiens, UniProt O14733)
T2 construct: purchased Millipore
T2 sequence (O14733 1-419): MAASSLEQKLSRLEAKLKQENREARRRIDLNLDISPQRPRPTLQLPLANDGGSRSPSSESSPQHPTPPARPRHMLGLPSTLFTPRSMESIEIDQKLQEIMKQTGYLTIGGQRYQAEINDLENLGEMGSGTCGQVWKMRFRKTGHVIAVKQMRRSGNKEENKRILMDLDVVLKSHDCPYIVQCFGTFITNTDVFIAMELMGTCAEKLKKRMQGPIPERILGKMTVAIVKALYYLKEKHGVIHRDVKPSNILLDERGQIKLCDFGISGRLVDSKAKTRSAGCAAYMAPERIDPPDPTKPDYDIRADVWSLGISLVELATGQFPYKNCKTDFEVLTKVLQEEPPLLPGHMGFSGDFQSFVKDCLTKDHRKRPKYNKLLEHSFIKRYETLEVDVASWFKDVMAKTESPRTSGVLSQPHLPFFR
How it was run: as §1

MRCKβ(h) = molecular target: T3, MRCKβ(h) (Homo sapiens, UniProt Q9Y5S2)
T3 construct: purchased Millipore
T3 sequence (Q9Y5S2 whole entry): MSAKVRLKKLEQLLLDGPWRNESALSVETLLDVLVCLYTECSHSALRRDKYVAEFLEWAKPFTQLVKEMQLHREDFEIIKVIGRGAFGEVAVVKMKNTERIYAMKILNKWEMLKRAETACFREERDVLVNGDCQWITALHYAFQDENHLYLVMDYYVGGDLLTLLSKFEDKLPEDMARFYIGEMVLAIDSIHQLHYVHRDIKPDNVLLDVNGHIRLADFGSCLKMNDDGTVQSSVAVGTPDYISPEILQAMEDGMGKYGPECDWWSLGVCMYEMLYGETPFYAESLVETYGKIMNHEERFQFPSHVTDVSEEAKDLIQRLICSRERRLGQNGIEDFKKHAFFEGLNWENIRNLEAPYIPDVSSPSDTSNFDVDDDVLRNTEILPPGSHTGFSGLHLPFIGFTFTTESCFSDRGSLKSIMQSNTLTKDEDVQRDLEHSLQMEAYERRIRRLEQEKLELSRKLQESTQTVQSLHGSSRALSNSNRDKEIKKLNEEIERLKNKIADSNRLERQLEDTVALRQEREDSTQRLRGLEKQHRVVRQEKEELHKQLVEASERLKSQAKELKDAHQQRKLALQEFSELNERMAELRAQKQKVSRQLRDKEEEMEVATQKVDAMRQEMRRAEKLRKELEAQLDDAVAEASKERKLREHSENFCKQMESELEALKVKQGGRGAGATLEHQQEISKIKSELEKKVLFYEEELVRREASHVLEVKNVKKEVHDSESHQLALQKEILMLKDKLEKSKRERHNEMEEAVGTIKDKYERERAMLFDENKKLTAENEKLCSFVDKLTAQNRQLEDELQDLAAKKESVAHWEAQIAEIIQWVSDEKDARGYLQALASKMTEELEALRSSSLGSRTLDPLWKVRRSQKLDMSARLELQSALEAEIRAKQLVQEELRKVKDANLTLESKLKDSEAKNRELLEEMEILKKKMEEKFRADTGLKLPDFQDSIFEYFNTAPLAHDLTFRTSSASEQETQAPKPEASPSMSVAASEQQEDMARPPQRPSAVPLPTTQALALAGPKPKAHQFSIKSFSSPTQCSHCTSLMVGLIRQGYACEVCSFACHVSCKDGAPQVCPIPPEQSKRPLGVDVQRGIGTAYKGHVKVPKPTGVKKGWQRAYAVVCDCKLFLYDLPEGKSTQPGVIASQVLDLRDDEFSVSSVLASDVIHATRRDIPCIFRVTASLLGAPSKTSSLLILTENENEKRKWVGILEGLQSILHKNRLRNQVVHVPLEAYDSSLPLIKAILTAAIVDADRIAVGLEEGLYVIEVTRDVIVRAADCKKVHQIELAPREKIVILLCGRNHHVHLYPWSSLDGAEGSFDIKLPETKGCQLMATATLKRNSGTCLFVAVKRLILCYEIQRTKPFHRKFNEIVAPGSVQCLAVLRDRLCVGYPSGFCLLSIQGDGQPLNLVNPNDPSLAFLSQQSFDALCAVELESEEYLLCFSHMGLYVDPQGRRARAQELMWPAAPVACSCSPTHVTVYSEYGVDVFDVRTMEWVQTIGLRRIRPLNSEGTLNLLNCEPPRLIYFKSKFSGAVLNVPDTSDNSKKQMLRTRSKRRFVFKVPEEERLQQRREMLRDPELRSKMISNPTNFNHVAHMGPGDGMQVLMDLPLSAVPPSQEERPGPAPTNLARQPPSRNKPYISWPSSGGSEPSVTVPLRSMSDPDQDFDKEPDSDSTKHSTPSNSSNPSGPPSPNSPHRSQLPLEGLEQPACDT
How it was run: as §1

EphB1(h) = molecular target: T4, EphB1(h) (Homo sapiens, UniProt P54762)
T4 sequence (P54762 18-984): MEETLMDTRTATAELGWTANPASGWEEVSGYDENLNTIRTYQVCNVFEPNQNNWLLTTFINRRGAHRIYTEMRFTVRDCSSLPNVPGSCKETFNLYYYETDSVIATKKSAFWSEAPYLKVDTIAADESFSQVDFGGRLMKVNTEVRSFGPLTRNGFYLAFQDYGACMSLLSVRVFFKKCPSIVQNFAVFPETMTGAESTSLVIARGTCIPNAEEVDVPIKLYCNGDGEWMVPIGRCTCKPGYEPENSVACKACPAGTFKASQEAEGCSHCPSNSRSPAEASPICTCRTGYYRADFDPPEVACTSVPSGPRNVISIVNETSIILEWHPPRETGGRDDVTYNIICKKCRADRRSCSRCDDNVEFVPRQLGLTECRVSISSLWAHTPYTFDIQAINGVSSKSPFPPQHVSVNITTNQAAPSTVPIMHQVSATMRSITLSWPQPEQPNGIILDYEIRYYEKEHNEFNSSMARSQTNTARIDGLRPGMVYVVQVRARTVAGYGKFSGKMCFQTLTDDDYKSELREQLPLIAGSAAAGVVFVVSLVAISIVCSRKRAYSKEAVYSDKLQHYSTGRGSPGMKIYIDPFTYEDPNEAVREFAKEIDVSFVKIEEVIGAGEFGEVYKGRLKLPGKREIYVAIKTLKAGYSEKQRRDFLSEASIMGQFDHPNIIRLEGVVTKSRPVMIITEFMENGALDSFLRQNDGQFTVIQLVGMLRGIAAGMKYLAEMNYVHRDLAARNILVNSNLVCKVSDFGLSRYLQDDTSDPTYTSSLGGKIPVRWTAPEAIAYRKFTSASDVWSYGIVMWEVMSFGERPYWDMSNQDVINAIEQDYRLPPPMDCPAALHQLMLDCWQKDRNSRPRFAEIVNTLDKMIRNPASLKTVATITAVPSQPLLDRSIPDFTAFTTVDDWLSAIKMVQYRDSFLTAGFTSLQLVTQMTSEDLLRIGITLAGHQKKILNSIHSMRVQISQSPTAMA
How it was run: as §1

cKit(D816V)(h) = cKit(D816V)(h) (Homo sapiens, UniProt P10721, D816V)
How it was run: as §1

EGFR(h) = EGFR(h) (Homo sapiens, UniProt P00533)
How it was run: as §1

PrKX(h) = molecular target: T5, PrKX(h) (Homo sapiens, UniProt P51817)
T5 sequence (P51817 1-358): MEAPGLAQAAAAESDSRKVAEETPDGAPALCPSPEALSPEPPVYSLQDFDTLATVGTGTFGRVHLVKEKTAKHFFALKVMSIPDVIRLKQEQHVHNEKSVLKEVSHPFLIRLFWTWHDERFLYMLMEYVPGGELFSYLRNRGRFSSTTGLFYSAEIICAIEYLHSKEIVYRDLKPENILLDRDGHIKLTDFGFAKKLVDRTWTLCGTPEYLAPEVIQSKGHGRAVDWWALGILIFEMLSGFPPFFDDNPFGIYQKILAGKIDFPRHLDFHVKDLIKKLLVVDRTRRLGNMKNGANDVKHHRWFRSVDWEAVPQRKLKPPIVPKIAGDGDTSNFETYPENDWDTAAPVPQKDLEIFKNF
How it was run: as §1

Hck(h) = molecular target: T6, Hck(h) (Homo sapiens, UniProt P08631)
T6 construct: purchased Millipore
T6 sequence (P08631 whole entry): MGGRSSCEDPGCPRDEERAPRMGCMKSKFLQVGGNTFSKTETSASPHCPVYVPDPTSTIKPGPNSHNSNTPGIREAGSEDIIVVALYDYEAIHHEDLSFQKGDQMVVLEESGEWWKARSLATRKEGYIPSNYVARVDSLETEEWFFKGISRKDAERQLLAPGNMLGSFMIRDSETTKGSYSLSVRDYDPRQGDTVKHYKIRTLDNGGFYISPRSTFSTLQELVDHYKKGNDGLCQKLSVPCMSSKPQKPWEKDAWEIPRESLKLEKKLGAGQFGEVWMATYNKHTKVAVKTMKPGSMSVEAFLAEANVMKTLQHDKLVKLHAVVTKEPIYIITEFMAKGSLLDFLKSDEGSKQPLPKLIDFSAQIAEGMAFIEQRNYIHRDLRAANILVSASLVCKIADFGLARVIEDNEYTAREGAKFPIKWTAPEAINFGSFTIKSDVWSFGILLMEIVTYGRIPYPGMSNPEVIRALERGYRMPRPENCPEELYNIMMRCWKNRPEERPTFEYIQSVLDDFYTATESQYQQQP
How it was run: as §1

Sequence | % activity (SGK(h)) [%] | % activity (MKK7β(h)) [%] | % activity (MRCKβ(h)) [%] | % activity (EphB1(h)) [%] | % activity (cKit(D816V)(h)) [%] | % activity (EGFR(h)) [%] | % activity (PrKX(h)) [%] | % activity (Hck(h)) [%]
FAKLAARLYRKALARQLGVAA [MMI-0300] | 48 | 100 | 83 | 44 | 60 | 21 | 61 | 72
HRRIKAWLKKIKALARQLGVAA (Mammal) [MMI-0500] | 2 |  | -10 | 37 | 30 | -1 | 57 | 78
KAFAKLAARLYRKALARQLGVAA [MMI-0400] | 54 | 94 | 71 | 58 | 35 | 16 | 76 | 72
YARAAARQARAKALARQLGVAA [MMI-0100] | 128 | 137 |  | 99 |  |  | 84 | 
YARAAARQARAKALNRQLGVA (Mammal) [MMI-0200] |  |  |  | 95 | 118 | 83 |  | 
